Source: US6632625 (MERCK, dated 2003)

Biological target: T1, recombinant human leptin (human, UniProt P41159 22-167, 125I label on the tracer form (125I-leptin, NEN); position not stated)
T1 construct: also called recombinant leptin; 125I-leptin
Test: 125I-leptin binding on transfected COS cells

T1 sequence (P41159 22-167 limits assumed): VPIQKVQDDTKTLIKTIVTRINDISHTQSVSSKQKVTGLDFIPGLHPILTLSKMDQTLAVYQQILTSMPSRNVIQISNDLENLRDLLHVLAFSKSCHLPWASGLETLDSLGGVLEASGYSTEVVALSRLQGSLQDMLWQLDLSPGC

- binding result: no binding (tested: 0.2 nM)
B1: substitution mutant (420-496)TO(500-632) of the human OB-R (receptor)
chain: FNLSYPITPWRFKLSCMPPNSTYDYFLLPAGLSKNTSNSNGHYETAVEPKFNSSGTHFSNLSKTTFHCCFRSEQDRNCSLCADNIEGKTFVSTVNSLVFQQIDANWNIQCWLKGDLKLFICYVESLFKNLFRNYNYKVHLLYVLPEVLEDSPLVPQKGSFQMVHCNCSVHECCECLVPVPTAKLNDTLLMCLKITSGGVIFQSPLMSVQPINMVKPDPPLGLHMEITDDGNLKISWSSPPLVPFPLQYQVKYSENSTTVIREADKIVSATSLLVDSILPGSSYEVQVRGKRLDGPGIWSDWSTPRVFTTQDVIYFPPKILTSVGSNVSFHCIYKKENKIVPSKEIVWWMNLAEKIPQSQYDVVSDHVSKVTFFNLNETKPRGKFTYDAVYCCNEHECHFQPIFLLSGYTMWIRINHSLGSLDSPPTCVLPDSVVKPLPPSSVKAEITINIGLLKISWEKPVFPENNLQFQIRYGLSGKEVQWKMYEVYDAKSKSVSLPVPDLCAVYAVQVRCKRLDGLGYWSNWSNPAYTVECIFQPIFLLSGYTMWIRINHSLGSLDSPPTCVLPDSVVKPLPPSSVKAEITINIGLLKISWEKPVFPENNLQFQIRYGLSGKEVQWKMYEVYDAKSKSVSLPVPDLCAVYAVQVRCKRLDGLGYWSNWSNPAYTVVMDIKVPMRGPEFWRIINGDTMKKEKNVTLLWKPLMKNDSLCSVQRYVINHHTSCNGTWSEDVGNHTKFTFLWTEQAHTVTVLAINSIGASVANFNLTFSWPMSKVNIVQSLSAYPLNSSCVIVSWILSPSDYKLMYFIIEWKNLNEDGEIKWLRISSSVKKYYIHDHFIPIEKYQFSLYPIFMEGVGKPKIINSFTQDDIEKHQSDAGLYVIVPVIISSSILLLGTLLISHQRMKKLFWEDVPNPKNCSWAQGLNFQKPETFEHLFIKHTASVTCGPLLLEPETISEDISVDTSWKNKDEMMPTTVVSLLSTTDLEKGSVCISDQFNSVNFSEAEGTEVTYEAESQRQPFVKYATLISNSKPSETGEEQGLINSSVTKCFSSKNSPLKDSFSNSSWEIEAQAFFILSDQHPNIISPHLTFSEGLDELLKLEGNFPEENNDKKSIYYLGVTSIKKRESGVLLTDKSRVSCPFPAPCLFTDIRVLQDSCSHFVENNINLGTSSKKTFASYMPQFQTCSTQTHKIMENKMCDLTV
